One protein from PMC7322680 (Biochemistry and Biophysics Reports, 2020) can be followed below.

For orientation: stoichiometry N means the number of molecules, sites or subunits per partner or assembly.

Values joined by “and” are separate entries in the source; they are usually repeats but may differ in a detail not shown here. Equal values may be shown once.

The data set “SEC” deals with the molecule itself. The data set is described as follows: SEC.
The data set “SEC-MALS” deals with the molecule itself. The data set is described as follows: SEC-MALS. On the technique in general: In gel filtration, larger molecules generally elute earlier.

B1: human podocin domain (residues 126-350) (domain or fragment, UniProt Q9NP85 126-350, looked up)
chain: KVVQEYERVIIFRLGHLLPGRAKGPGLFFFLPCLDTYHKVDLRLQTLEIPFHEIVTKDMFIMEIDAICYYRMENASLLLSSLAHVSKAVQFLVQTTMKRLLAHRSLTEILLERKSIAQDAKVALDSVTCIWGIKVERIEIKDVRLPAGLQHSLAVEAEAQRQAKVRMIAAEAEKAASESLRMAAEILSGTPAAVQLRYLHTLQSLSTEKPSTVVLPLPFDLLNCL
As to B1, the “stoichiometry N” value in the data set “SEC” was 16; in “SEC-MALS” it was ~16 and 25 and 13.
